We go through one molecule from patent US20150191542A1 (INNATE PHARMA S A, published 2015).

The target in the assay is T1, MICA*004 expressed on C1R transfectant cells (human, UniProt Q29983 24-297, Glycosylated on cells; the letters do not carry this.).
T1 construct: also called C1R-MICA*004; C1R-MICA*04
T1 chain: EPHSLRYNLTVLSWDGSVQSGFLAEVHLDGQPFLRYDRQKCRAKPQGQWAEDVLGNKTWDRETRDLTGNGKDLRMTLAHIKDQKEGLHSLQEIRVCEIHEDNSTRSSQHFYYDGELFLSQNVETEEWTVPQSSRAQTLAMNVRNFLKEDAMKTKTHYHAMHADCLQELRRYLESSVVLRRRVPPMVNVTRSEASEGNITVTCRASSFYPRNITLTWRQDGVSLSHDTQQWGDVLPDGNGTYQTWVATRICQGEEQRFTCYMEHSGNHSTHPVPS
Nature of the assay: flow cytometry, MFI against antibody concentration on C1R-MICA*04 cells. As for the experimental part: The binding of antibodies obtained from the first and second immunization series (including 9C10, 20C6 and 16A8) were tested for binding to MICA-expressing CR1 transfectant cells C1R-MICA*001, C1R-MICA*004, C1R-MICA*007 and C1R-MICA*008 (Pr. A. Steinle, Eberhard-Karls University Tuebingen, Germany) described in Salih et al. (2003) Blood 102(4): […]. Binding was analyzed by flow cytometry.
Cells were harvested and stained in PBS 1×/BSA 0,2%/EDTA 2 mM buffer during 30 minutes at 4° C. using a dose-range of the anti-MICA mAbs. After two washes in staining buffer, cells were stained for 30 min at 4° C. with goat anti-mouse (H+L)-PE polyclonal antibodies (1/200). After two washes, stainings were acquired on a BD FACS Canto II and analyzed using the FlowJo software.
In general terms: In flow cytometry, cells or beads pass a laser one at a time.

B1: antibody 9C10 (antibody, V domains shown)
VH: QVQLQQPGAELVRPGTSVNLSCKASGYSFTRYWMNWVKQRPGQGLEWIGMIHPSDSETRLNQKFKDKATLTVDKSSSTAYMQLSSPTSEDSAVYYCGYGNFFYVMDYWGQGTSVTVSS
VL: DILLTQSPAILSVSPGERVSFSCRASQSIGTSIHWYQQRTNGSPRLLIKFASESISGIPSRFSGSGSGTDFTLNINSVESEDIADYYCQQSNFWPFTFGSGTKLEVK
modifications: Biotinylated when captured in the SPR assays (9C10-Biot); the sites are not given.
notes: Murine hybridoma antibody of IgG2b isotype as tested; also called 9C10-Biot
On to B1, for which the “EC50 (read off the curve)” value was about 0.2 µg/mL.

Usually EC50 (read off the curve) stands for the midpoint of the concentration-response curve. The low end stands for a more potent agent, the high end for a less potent agent.
